# Experimental data reported in publication PMC11574045, “A cofactor-induced repressive type of transcription factor condensation can be induced by synthetic peptides to suppress tumorigenesis” (The EMBO Journal, 2024).
# B1: CJUN (protein, UniProt P05412 1-331, looked up)
# Transcription factor Jun: MTAKMETTFYDDALNASFLPSESGPYGYSNPKILKQSMTLNLADPVGSLKPHLRAKNSDLLTSPDVGLLKLASPELERLIIQSSNGHITTTPTPTQFLCPKNVTDEQEGFAEGFVRALAELHSQNTLPSVTSAAQPVNGAGMVAPAVASVAGGSGSGGFSASLHSEPPVYANLSNFNPGALSSGGGAPSYGAAGLAFPAQPQQQQQPPHHLPQQMPVQHPRLQALKEEPQTVPEMPGETPPLSPIDMESQERIKAERKRMRNRIAASKCRKRKLERIARLEEKVKTLKAQNSELASTANMLREQVAQLKQKVMNHVNSGCQLMLTQQLQTF
# B2: CREB5 (protein, UniProt Q02930 1-508, looked up)
# Cyclic AMP-responsive …: MIYEESKMNLEQERPFVCSAPGCSQRFPTEDHLMIHRHKHEMTLKFPSIKTDNMLSDQTPTPTRFLKNCEEVGLFSELDCSLEHEFRKAQEEESSKRNISMHNAVGGAMTGPGTHQLSSARLPNHDTNVVIQQAMPSPQSSSVITQAPSTNRQIGPVPGSLSSLLHLHNRQRQPMPASMPGTLPNPTMPGSSAVLMPMERQMSVNSSIMGMQGPNLSNPCASPQVQPMHSEAKMRLKAALTHHPAAMSNGNMNTMGHMMEMMGSRQDQTPHHHMHSHPHQHQTLPPHHPYPHQHQHPAHHPHPQPHHQQNHPHHHSHSHLHAHPAHHQTSPHPPLHTGNQAQVSPATQQMQPTQTIQPPQPTGGRRRRVVDEDPDERRRKFLERNRAAATRCRQKRKVWVMSLEKKAEELTQTNMQLQNEVSMLKNEVAQLKQLLLTHKDCPITAMQKESQGYLSPESSPPASPVPACSQQQVIQHNTITTSSSVSEVVGSSTLSQLTTHRTDLNPIL
# B3: CRSP9 (protein, UniProt O43513 1-233, looked up)
# Mediator of RNA polymerase II …: MGEPQQVSALPPPPMQYIKEYTDENIQEGLAPKPPPPIKDSYMMFGNQFQCDDLIIRPLESQGIERLHPMQFDHKKELRKLNMSILINFLDLLDILIRSPGSIKREEKLEDLKLLFVHVHHLINEYRPHQARETLRVMMEVQKRQRLETAERFQKHLERVIEMIQNCLASLPDDLPHSEAGMRVKTEPMDADDSNNCTGQNEHQRENSGHRRDQIIEKDAALCVLIDEMNERP
# B4: CREM (protein, UniProt Q03060 1-345, looked up)
# cAMP-responsive element …: MTMETVESQHDGSITASLTESKSAHVQTQTGQNSIPALAQVSVAGSGTRRGSPAVTLVQLPSGQTIHVQGVIQTPQPWVIQSSEIHTVQVAAIAETDESAESEGVIDSHKRREILSRRPSYRKILNELSSDVPGVPKIEEERSEEEGTPPSIATMAVPTSIYQTSTGQYIAIAQGGTIQISNPGSDGVQGLQALTMTNSGAPPPGATIVQYAAQSADGTQQFFVPGSQVVVQDEETELAPSHMAAATGDMPTYQIRAPTAALPQGVVMAASPGSLHSPQQLAEEATRKRELRLMKNREAAKECRRRKKEYVKCLESRVAVLEVQNKKLIEELETLKDICSPKTDY
# B5: CLOCK (protein, UniProt O15516 1-846, looked up)
# Circadian locomoter output …: MLFTVSCSKMSSIVDRDDSSIFDGLVEEDDKDKAKRVSRNKSEKKRRDQFNVLIKELGSMLPGNARKMDKSTVLQKSIDFLRKHKEITAQSDASEIRQDWKPTFLSNEEFTQLMLEALDGFFLAIMTDGSIIYVSESVTSLLEHLPSDLVDQSIFNFIPEGEHSEVYKILSTHLLESDSLTPEYLKSKNQLEFCCHMLRGTIDPKEPSTYEYVKFIGNFKSLNSVSSSAHNGFEGTIQRTHRPSYEDRVCFVATVRLATPQFIKEMCTVEEPNEEFTSRHSLEWKFLFLDHRAPPIIGYLPFEVLGTSGYDYYHVDDLENLAKCHEHLMQYGKGKSCYYRFLTKGQQWIWLQTHYYITYHQWNSRPEFIVCTHTVVSYAEVRAERRRELGIEESLPETAADKSQDSGSDNRINTVSLKEALERFDHSPTPSASSRSSRKSSHTAVSDPSSTPTKIPTDTSTPPRQHLPAHEKMVQRRSSFSSQSINSQSVGSSLTQPVMSQATNLPIPQGMSQFQFSAQLGAMQHLKDQLEQRTRMIEANIHRQQEELRKIQEQLQMVHGQGLQMFLQQSNPGLNFGSVQLSSGNSSNIQQLAPINMQGQVVPTNQIQSGMNTGHIGTTQHMIQQQTLQSTSTQSQQNVLSGHSQQTSLPSQTQSTLTAPLYNTMVISQPAAGSMVQIPSSMPQNSTQSAAVTTFTQDRQIRFSQGQQLVTKLVTAPVACGAVMVPSTMLMGQVVTAYPTFATQQQQSQTLSVTQQQQQQSSQEQQLTSVQQPSQAQLTQPPQQFLQTSRLLHGNPSTQLILSAAFPLQQSTFPQSHHQQHQSQQQQQLSRHRTDSLPDPSKVQPQ
# B6: ABT1 (protein, UniProt Q9ULW3 1-272, looked up)
# Activator of basal …: MEAEESEKAATEQEPLEGTEQTLDAEEEQEESEEAACGSKKRVVPGIVYLGHIPPRFRPLHVRNLLSAYGEVGRVFFQAEDRFVRRKKKAAAAAGGKKRSYTKDYTEGWVEFRDKRIAKRVAASLHNTPMGARRRSPFRYDLWNLKYLHRFTWSHLSEHLAFERQVRRQRLRAEVAQAKRETDFYLQSVERGQRFLAADGDPARPDGSWTFAQRPTEQELRARKAARPGGRERARLATAQDKARSNKGLLARIFGAPPPSESMEGPSLVRDS
# B7: CREBL2 (protein, UniProt O60519 1-120, looked up)
# cAMP-responsive …: MDDSKVVGGKVKKPGKRGRKPAKIDLKAKLERSRQSARECRARKKLRYQYLEELVSSRERAICALREELEMYKQWCMAMDQGKIPSEIKALLTGEEQNKSQQNSSRHTKAGKTDANSNSW
# B8: AATF (protein, UniProt Q9JKX4 2-526, looked up)
# Protein AATF: AAPQPLALQLEQLLNPRPREADPEADPEEATRARVIDRFDEGEEEKDDLAVSSIRKLAPVSLLDTDKRYSGKTTSRKAWKEDHWEQALPSSSDNEASDEGGSEDGDSEGLGLEEISEDVDEDLEDNKISDEGGSEDGDSEGLGLEEFSEDVEEDLEGEDEEDREEDRNSEDDGVVAAFSSVKVSEEVEKGRAVKNQIALWDQLLEGRIKLQKALLTTNQLPQPDVFPVFKDKGGPEFASALKNSHKALKALLRSLVDLQEELLFQYPDTRHIVNGAKPNTESEEISSEDDELVGEKKKQRKAPPKRKLEMEDYPSFMAKRFADFTIYRNHTLQKWHDKTKLASGKLGKGFGAFERSILTQIDHIMMDKERLLRRTQTKRSAYRVLGKPEPVPEPVAETLPGEPETLPQGPANAHLRDLDEEIFDDDDFYHQLLRELIERKTSSLDPNDQVAMGRQWLAIQKLRSKIRKKVDRKASKGRKLRFHVLSKLLSFMAPIDHTAMSDDARTELFRSLFGQLNPPDADRGK
# B9: CEBPG (protein, UniProt P53567 1-150, looked up)
# CCAAT/enhancer-binding …: MSKISQQNSTPGVNGISVIHTQAHASGLQQVPQLVPAGPGGGGKAVAPSKQSKKSSPMDRNSDEYRQRRERNNMAVKKSRLKSKQKAQDTLQRVNQLKEENERLEAKIKLLTKELSVLKDLFLEHAHNLADNVQSISTENTTADGDNAGQ
# B10: CRSP6 (protein, UniProt Q9NVC6 1-651, looked up)
# Mediator of RNA polymerase II …: MSGVRAVRISIESACEKQVHEVGLDGTETYLPPLSMSQNLARLAQRIDFSQGSGSEEEEAAGTEGDAQEWPGAGSSADQDDEEGVVKFQPSLWPWDSVRNNLRSALTEMCVLYDVLSIVRDKKFMTLDPVSQDALPPKQNPQTLQLISKKKSLAGAAQILLKGAERLTKSVTENQENKLQRDFNSELLRLRQHWKLRKVGDKILGDLSYRSAGSLFPHHGTFEVIKNTDLDLDKKIPEDYCPLDVQIPSDLEGSAYIKVSIQKQAPDIGDLGTVNLFKRPLPKSKPGSPHWQTKLEAAQNVLLCKEIFAQLSREAVQIKSQVPHIVVKNQIISQPFPSLQLSISLCHSSNDKKSQKFATEKQCPEDHLYVLEHNLHLLIREFHKQTLSSIMMPHPASAPFGHKRMRLSGPQAFDKNEINSLQSSEGLLEKIIKQAKHIFLRSRAAATIDSLASRIEDPQIQAHWSNINDVYESSVKVLITSQGYEQICKSIQLQLNIGVEQIRVVHRDGRVITLSYQEQELQDFLLSQMSQHQVHAVQQLAKVMGWQVLSFSNHVGLGPIESIGNASAITVASPSGDYAISVRNGPESGSKIMVQFPRNQCKDLPKSDVLQDNKWSHLRGPFKEVQWNKMEGRNFVYKMELLMSALSPCLL
# Test system: HEK293FT cells transfected with TF library
# Experiment: Screening of TF condensates based on fluorescent puncta
# Format: cell-based
# Conditions: Figure 1B numerical data; TF library screen, one value per transcriptional factor
# Summary of the method: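 Condensate formation is scored as Alexa 488-labelled puncta after Flag- or GAL4-tag immunostaining of fixed HEK293FT cells expressing individual TFs, with a 12 h glucose-free or glucose-containing culture preceding fixation.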
row,Molecule,Z score of condensed fraction
1,B1,2.466
2,B2,-0.7141
3,B3,-0.379
4,B4,-0.7399
5,B5,-0.2095
6,B6,-0.3156
7,B7,0.3406
8,B8,-0.6879
9,B9,0.2566
10,B10,-0.7101
